What is called Kd is a measure of binding affinity in units of concentration.

This is an account of results in article PMC7979930.

The target of data set [1] is CBF3core, dephosphorylated (Cep3 dimer, Ctf13, Skp1) (budding yeast) (UniProt P40969+P35203+P52286). Nature of the data set: EMSA. Particulars: 1 mM DTT, 60 min on ice, 530 nM nucleosome, 106-1166 nM CBF3/CBF3core, 4% PAGE 0.2x TBE 4 C, EtBr stain, Hill fit. For orientation: In EMSA bound probe runs differently from free probe, usually more slowly.
In data set [2] the target is CBF3, dephosphorylated (CBF3core + Ndc10 NTD) (budding yeast) (UniProt P40969+P35203+P52286+P32504). Nature of the data set: EMSA. As to conditions: Ndc10 dissociates, main text says CEN3 nucleosome, Methods CEN3-601, EMSA: 10 mM Tris pH 7.4, 75 mM NaCl, 1 mM DTT, 60 min on ice, 530 nM nucleosome, 106-1166 nM CBF3/CBF3core, 4% PAGE 0.2x TBE 4 C, EtBr stain, Hill fit.
The target in data set [3] is CEN3 CENP-A^Cse4_∆L1 nucleosome (budding yeast | yeast) (UniProt P36012). Nature of the data set: native gel or EMSA; CBF3/CBF3core with CEN3 nucleosomes, room temperature 60 min; native agarose gels in 0.2 x TBE, SYBR Green I stain, bands quantified.
The target of data set [4] is CEN3 CENP-A^Cse4 nucleosome with H2B_5mut (budding yeast | yeast) (UniProt P36012). The description is as above.
Data set [5] concerns the target CEN3 CENP-A^Cse4_∆L1 nucleosome with H2B_5mut (budding yeast | yeast) (UniProt P36012). The data set is described as above.
Data set [6] deals with CEN3 CENP-A^Cse4 nucleosome (budding yeast | yeast) (UniProt P36012). Described as above.
Where [7] appears, read: Fig. 3c legend says CEN3, Supp. Fig. 4f says CEN3-601, EMSA: 10 mM Tris pH 7.4, 75 mM NaCl.

In data set [1] (setting [7]), “ATCGAGAATCCCGGTGCCGAGGCCGCTCAATTGGTCGTAGACAGCTCTAGCACCGCTTAAACGCACGTACGCGCTGTCCCCCGCGTTTTAATATTAGTGTATTTGATTTCCGAAAGTTAAAAAAGAAATAGTAAGAAATCATCCGAT (double strand) [CEN3-601 Cse4/H2B_5mut nucleosome]” had a Kd of 0.35 µM. Regarding “ATCGAGAATCCCGGTGCCGAGGCCGCTCAATTGGTCGTAGACAGCTCTAGCACCGCTTAAACGCACGTACGCGCTGTCCCCCGCGTTTTAATATTAGTGTATTTGATTTCCGAAAGTTAAAAAAGAAATAGTAAGAAATCATCCGAT (double strand) [CEN3-601 Cse4 nucleosome]”, the Kd in data set [1] (NucCse4/H2B, Fig. 3c legend says CEN3, Supp. Fig. 4f and Methods say CEN3-601, EMSA: 10 mM Tris pH 7.4, 75 mM NaCl) came out at 0.32 µM; in data set [2], 0.55 µM. Consider “ATCGAGAATCCCGGTGCCGAGGCCGCTCAATTGGTCGTAGACAGCTCTAGCACCGCTTAAACGCACGTACGCGCTGTCCCCCGCGTTTTAATATTAGTGTATTTGATTTCCGAAAGTTAAAAAAGAAATAGTAAGAAATCATCCGAT (double strand) [CEN3-601 Cse4_deltaL1/H2B_5mut nucleosome]”, for which the Kd in data set [1] (setting [7]) came out at 0.68 µM. As for “dephosphorylated CBF3core (from UniProt P40969 1-608; P52286 1-194; P35203 1-478) (complex)”, the Kd in data set [3] is 0.36 µM; in data set [4], 0.35 µM; in data set [5] it was 0.68 µM; in data set [6] it was 0.32 µM. In data set [1] (setting [7]), “ATCGAGAATCCCGGTGCCGAGGCCGCTCAATTGGTCGTAGACAGCTCTAGCACCGCTTAAACGCACGTACGCGCTGTCCCCCGCGTTTTAATATTAGTGTATTTGATTTCCGAAAGTTAAAAAAGAAATAGTAAGAAATCATCCGAT (double strand) [CEN3-601 Cse4_deltaL1 nucleosome]” had a Kd of 0.36 µM.
